Target: T1, AvrB (WT), C-terminal 6xHis tag (P. syringae, UniProt P13835 1-321)
T1 construct: AvrB, type III secretion system effector of Pseudomonas syringae; cDNA in pET-29b; source: E. coli BL21 (DE3), purified (Ni2+-NTA)
Assay: pull-down; GST-tagged bait (10 μg) and prey (10 μg) with 10 μl glutathione agarose resin in 500 μl of 25 mM Hepes pH 7.4, 150 mM NaCl, 1 mM DTT, 0.1% Triton X-100, 5 mg BSA for blocking; 4°C, 30 min; three washes; SDS-PAGE, Coomassie staining
Conditions: both partners purified

| Binder | binding result |
| --- | --- |
| GST-RIN4 T166A (natural protein, source: E. coli BL21 (DE3), purified (Ni2+-NTA)) MARSNVPKFGNWEAEENVPYTAYFDKARKTRAPGSKIMNPNDPEYNSDSQSQAPPHPPSSRTKPEQVDTVRRSREHMRSREESELKQFGDAGGSSNEAANKRQGRASQNNSYDNKSPLHKNSYDGTGKSRPKPTNLRADESPEKVTVVPKFGDWDENNPSSADGYAHIFNKVREERSSGANVSGSSRTPTHQSSRNPNNTSSCCCFGFGGK | binds |
| GST-RIN4 T166E (natural protein, source: E. coli BL21 (DE3), purified (Ni2+-NTA)) MARSNVPKFGNWEAEENVPYTAYFDKARKTRAPGSKIMNPNDPEYNSDSQSQAPPHPPSSRTKPEQVDTVRRSREHMRSREESELKQFGDAGGSSNEAANKRQGRASQNNSYDNKSPLHKNSYDGTGKSRPKPTNLRADESPEKVTVVPKFGDWDENNPSSADGYEHIFNKVREERSSGANVSGSSRTPTHQSSRNPNNTSSCCCFGFGGK | binds |
